From PMC7705038

Target: McbR (Escherichia coli (avian pathogenic, strain APECX40)) (UniProt P76114)
Assay: EMSA

McbR (Escherichia coli (avian pathogenic, strain APECX40)), sequence (P76114 whole entry): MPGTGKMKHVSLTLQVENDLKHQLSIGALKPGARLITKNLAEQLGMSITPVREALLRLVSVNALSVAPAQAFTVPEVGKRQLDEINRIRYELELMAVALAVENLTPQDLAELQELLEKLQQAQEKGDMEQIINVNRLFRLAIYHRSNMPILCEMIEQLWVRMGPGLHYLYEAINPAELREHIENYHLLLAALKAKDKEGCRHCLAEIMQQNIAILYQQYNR

Q: For “ATGTTCGTGAATTTACAGGCGTTAGATTTACATACATTTGTGAATGTATGTACCATAGCACGACGATAATATAAACGCAGCAATGGGTTTATTAACTTTTGACCATTGACCAATTTGAAATCGGACACTCGAGGTTTACAT (double strand) [p-acrAB]”, which binding is on record?
A: binds
